Data: the supplement of paper PMC11246515
± gives the standard deviation of the averaged measurements.

Assay: total protein half-life in vivo (active degradation + dilution); higher = more stable protein
[1] = E. coli NCM3722 delta-clpP delta-lon delta-hslV, growth: N-lim chemostat, doubling time 6 h
[2] = E. coli NCM3722 delta-clpP, growth: N-lim chemostat, doubling time 6 h
[3] = E. coli NCM3722 delta-hslV, growth: N-lim chemostat, doubling time 6 h
[4] = E. coli NCM3722 delta-lon, growth: N-lim chemostat, doubling time 6 h
[5] = E. coli NCM3722 delta-smpB, growth: N-lim chemostat, doubling time 6 h
[6] = wild type E. coli NCM3722, growth: C-lim chemostat, doubling time 3 h
[7] = wild type E. coli NCM3722, growth: C-lim chemostat, doubling time 6 h
[8] = wild type E. coli NCM3722, growth: C-lim chemostat, doubling time 12 h
[9] = wild type E. coli NCM3722, growth: N-lim chemostat, doubling time 6 h
[10] = wild type E. coli NCM3722, growth: N-lim chemostat, doubling time 12 h
[11] = wild type E. coli NCM3722, growth: P-lim chemostat, doubling time 6 h
[12] = wild type E. coli NCM3722, growth: P-lim chemostat, doubling time 12 h

| Sequence | total protein half-life in vivo [1] [h] | total protein half-life in vivo [2] [h] | total protein half-life in vivo [3] [h] | total protein half-life in vivo [4] [h] | total protein half-life in vivo [5] [h] | total protein half-life in vivo [6] [h] | total protein half-life in vivo [7] [h] | total protein half-life in vivo [8] [h] | total protein half-life in vivo [9] [h] | total protein half-life in vivo [10] [h] | total protein half-life in vivo [11] [h] | total protein half-life in vivo [12] [h] |
| --- | --- | --- | --- | --- | --- | --- | --- | --- | --- | --- | --- | --- |
| MRKIALILAMLLIPCVSFAGLLGSSSSTTPVSKEYKQQLMGSPVYIQIFKEERTLDLYVKMGEQYQLLDSYKICKYSGGLGPKQRQGDFKSPEGFYSVQRNQLKPDSRYYKAINIGFPNAYDRAHGYEGKYLMIHGDCVSIGCYAMTNQGIDEIFQFVTGALVFGQPSVQVSIYPFRMTDANMKRHKYSNFKDFWEQLKPGYDYFEQTRKPPTVSVVNGRYVVSKPLSHEVVQPQLASNYTLPEAK [P0AA99] | 0.797 | 0.657 ± 0.077 | 0.844 | 0.64 | 0.689 ± 0.063 | 0.313 ± 0.18 | 1.37 | 1.81 | 0.909 ± 0.048 | 1.54 ± 0.73 | 0.858 ± 0.34 | 1.45 ± 0.56 |
| MSEALLNAGRQTLMLELQEASRLPERLGDDFVRAANIILHCEGKVVVSGIGKSGHIGKKIAATLASTGTPAFFVHPAEALHGDLGMIESRDVMLFISYSGGAKELDLIIPRLEDKSIALLAMTGKPTSPLGLAAKAVLDISVEREACPMHLAPTSSTVNTLMMGDALAMAVMQARGFNEEDFARSHPAGALGARLLNKVHHLMRRDDAIPQVALTASVMDAMLELSRTGLGLVAVCDAQQQVQGVFTDGDLRRWLVGGGALTTPVNEAMTVGGTTLQSQSRAIDAKEILMKRKITAAPVVDENGKLTGAINLQDFYQAGII | 5.02 ± 0.39 | 4.77 ± 0.57 | 4.52 ± 0.3 | 4.85 ± 0.39 | 4.33 ± 0.28 | 3.14 ± 0.043 | 5.34 ± 0.49 | 9.87 ± 2.3 | 4.55 ± 0.18 | 7.014 ± 0.018 | 5.2 ± 0.36 | 12.3 ± 0.49 |
| MHNDKDLSTWQTFRRLWPTIAPFKAGLIVAGVALILNAASDTFMLSLLKPLLDDGFGKTDRSVLVWMPLVVIGLMILRGITSYVSSYCISWVSGKVVMTMRRRLFGHMMGMPVSFFDKQSTGTLLSRITYDSEQVASSSSGALITVVREGASIIGLFIMMFYYSWQLSIILIVLAPIVSIAIRVVSKRFRNISKNMQNTMGQVTTSAEQMLKGHKEVLIFGGQEVETKRFDKVSNRMRLQGMKMVSASSISDPIIQLIASLALAFVLYAASFPSVMDSLTAGTITVVFSSMIALMRPLKSLTNVNAQFQRGMAACQTLFTILDSEQEKDEGKRVIERATGDVEFRNVTFTYPGRDVPALRNINLKIPAGKTVALVGRSGSGKSTIASLITRFYDIDEGEILMDGHDLREYTLASLRNQVALVSQNVHLFNDTVANNIAYARTEQYSREQIEEAARMAYAMDFINKMDNGLDTVIGENGVLLSGGQRQRIAIARALLRDSPILILDEATSALDTESERAIQAALDELQKNRTSLVIAHRLSTIEKADEIVVVEDGVIVERGTHNDLLEHRGVYAQLHKMQFGQ | 5.89 ± 0.51 | 5.99 ± 0.27 | 6.35 ± 0.47 | 6.51 ± 0.63 | 6.04 ± 0.25 | 3.38 ± 0.053 | 5.63 ± 0.13 | 11.4 ± 3 | 6.15 ± 0.19 | – | 5.9 ± 0.39 | 11.3 ± 0.23 |
| MSIRIIPQDELGSSEKRTADMIPPLLFPRLKNLYNRRAERLRELAENNPLGDYLRFAALIAHAQEVVLYDHPLEMDLTARIKEASAQGKPPLDIHVLPRDKHWQKLLMALIAELKPEMSGPALAVIENLEKASTQELEDMASALFASDFSSVSSDKAPFIWAALSLYWAQMANLIPGKARAEYGEQRQYCPVCGSMPVSSMVQIGTTQGLRYLHCNLCETEWHVVRVKCSNCEQSGKLHYWSLDDEQAAIKAESCDDCDTYLKILYQEKDPKIEAVADDLASLVLDARMEQEGYARSSINPFLFPGEGE | – | 4.49 ± 0.13 | 3.54 ± 0.26 | 4.36 ± 1.1 | 2.78 ± 0.7 | 1.81 ± 0.24 | 3.48 ± 0.15 | 6.07 ± 2.6 | 3.56 ± 0.28 | 4.72 ± 0.75 | 4.06 ± 0.14 | 7.84 ± 0.28 |
| MTESTSRRPAYARLLDRAVRILAVRDHSEQELRRKLAAPIMGKNGPEEIDATAEDYERVIAWCHEHGYLDDSRFVARFIASRSRKGYGPARIRQELNQKGISREATEKAMRECDIDWCALARDQATRKYGEPLPTVFSEKVKIQRFLLYRGYLMEDIQEIWRNFAD | 5.54 ± 0.24 | 3.94 | – | – | – | – | 4.03 | – | – | 5.32 | 7.34 | 8.52 |
| MTLRKILALTCLLLPMMASAHQFETGQRVPPIGITDRGELVLDKDQFSYKTWNSAQLVGKVRVLQHIAGRTSAKEKNATLIEAIKSAKLPHDRYQTTTIVNTDDAIPGSGMFVRSSLESNKKLYPWSQFIVDSNGVALGAWQLDEESSAVVVLDKDGRVQWAKDGALTPEEVQQVMDLLQKLLK | 3.41 ± 0.29 | 4.29 ± 0.11 | 5.19 | 5.62 ± 0.11 | 5.29 ± 0.49 | 2.78 ± 0.033 | 4.952 ± 0.046 | 7.33 ± 1.6 | 5.43 ± 0.29 | 7.61 ± 2.1 | 4.74 ± 1.5 | 8.359 ± 0.082 |
